{"source": "patent US20260001926A1", "molecular_target": "fibroblast growth factor receptor (FGFR)", "experiment": "cell-based or functional assay"}
{"substance": "Bovine wild-type FGF2 (SEQ ID NO: 1) (from UniProt P03969 11-155) (ligand)", "values": [{"measurement": "EC50 (luciferase reporter in HEK293T cells transfected with plasmid FJ773212 / pGL4.33)", "result": 0.2, "unit": "ng/ml"}]}
